assay: soluble on expression in E. coli; label from the status in PepcDB or PDB records

Row | Sequence | soluble on expression in E. coli
1 | MGSRNIVRAVLEEKKTEAITEVDEKGITCVMKFGGSSVASAERMKEVADLILTFPEESPVIVLSAMGKTTNNLLLAGEKAVSCGVSNASEIEELSIIKELHIRTVKELNIDPSVILTYLEELEQLLKGIAMMKELTLRTRDYLVSFGECLSTRIFAAYLNTIGVKARQYDAFEIGFITTDDFTNGDILEATYPAVAKRLYDDWMHDPAVPIVTGFLGKGWKTGAVTTLGRGGSDLTATTIGKALGLKEIQVWKDVDGVLTCDPTIYKRATPVPYLTFDEAAELAYFGAQVLHPQSMRPAREGEIPVRVKNSYNPKAPGTIITKTRDMTKSILTSIVLKRNVTMLDIASTRMLGQVGFLAKVFSIFEELGISVDVVATSEVSISLTLDPSKLWSRELIQQELDHVVEELEKIAVVNLLKGRAIISLIGNVQHSSLILERAFHVLYTKGVNVQMISQGASKVNISFIVNEAEAEGCVQALHKSFFESGDLSELLIQPRLGNGSPVRTLQVEN | soluble
2 | MGSSHHHHHHGGFSQSCLPNWIMHGKSCYLFSFSGNSWYGSKRHCSQLGAHLLKIDNSKEFEFIESQTSSHRINAFWIGLSRNQSEGPWFWEDGSAFFPNSFQVRNAVPQESLLHNCVWIHGSEVYNQICNTSSYSICEKEL | soluble
3 | MGSSHHHHHHGGTGENLYFQGGSGGTCPSISQSEVGIVETCGRFSYTADPGIHCLWCGSVLVRRVTLRLQEYELKVESKTKDNVFVTLSLVIQYQVSPDKLAEVYYACDSSLQCMRDYVLNSIRAKIPLYKLEALYVERGTISQQLKDEVDAIIGTYGIEIVSALISDIDPGAEITKAMNEVQKFQRLRVASVDAAETEKLKRVRAAEARCEARRLSGEGLAEQRKAIVAGLMHSIEDVQSEVRDLTSNDATNMLLMNQYYDTLQAIAANSSSSVIMLESNGGLEKVAAQLRQGVTHMMR | not soluble
4 | MGSSHHHHHHGGTGENLYFQGGSGLRRTEIALKKGWTHNPGHTRRGGKNLAWRPKISDAKLSQFVPLALVHPRRHPNNWQERQFNALGYTKWPKDIGFYNAGDNFEVTPEAAWRLYVHARDEPYWGKLHCEKTIITLLPVVEKAPKENMERVLDVFRHYLKRYGADHYIYNAVMQAAAFAKNYEQAEQLFKEMETLGLEPNAQSYVNMMLAAKLCGLPPEKSEAYFKRAVKDGAMQSVMRMDTEFRMWMDQLDRLGSFTASSGYLSVNEEGAKPMPRDMWAIWGWHRSESKFISRRDLIMQQVRARVHSGKELVGTVYTKTRRQPWAKFNGMLRHDYNGPSYRAPTIFPDAPEYTNEAGHKAF | soluble
5 | MGSSHHHHHHGGTGENLYFQGGSGNRIDISNFDFLYVIGKGTYGIVYKALDKKENNFVAIKKIINLCDENYGISKCILRELTILQKIKHKNIINLKYVFYGKDIEDKLKGENLENSCLYLAFEYCDIDLFNLIKKHNLNIKEIKYIIFELLLALSYFHSNNYIHRDIKPENIFITSEGEIKLGDLGMSVEKSDHMTPTVVTLWYRAPEILLKSTNYDQKVDIWSLGCLFMELIQGRPLFPGKNDCTQLELIYLLLGDKDKLTTVDKERKDMFPYFEINMLKDAIDDEHTLDLISKMLIYDPNYRISSKEALKHPCFQDIEQVKFSYNF | not soluble
6 | MGSSHHHHHHGKTIFVIVPTNEEQVAFLEALAKQDELNFDWQNPPTEPGQPVVILIPSDMVEWFLEMLKAKGIPFTVYVEEGGSENLYFQGGGGGGFYVRTPGKRLLEDKVGKDGLSHYSSEFSSRSSSAELKESRASKCSTTTKRSFAENAAGGTADSSKSHRSMPEVVSAQSQHSKTTGSHKRD | soluble
7 | MGSSHHHHHHHHDYDIPTTENLYFQGSELSSLTAVSPVDGRYGDKVSALRGIFSEYGLLKFRVQVEVRWLQKLAAHAAIKEVPAFAADAIGYLDAIVANFSEEDAARIKTIERTTNHDVKAVEYFLKEKVAEIPELHAVSEFIHFACTSEDINNLSHALMLKTARDEVILPYWRQLIDGIKDLAVQYRDIPLLSRTHGQPATPSTIGKEMANVAYRMERQYRQLNQVEILGKINGAVGNYNAHIAAYPEVDWHQFSEEFVTSLGIQWNPYTTQIEPHDYIAELFDCVARFNTILIDFDRDVWGYIALNHFKQKTIAGEIGSSTMPHKVNPIDFENSEGNLGLSNAVLQHLASKLPVSRWQRDLTDSTVLRNLGVGIGYALIAYQSTLKGVSKLEVNRDHLLDELDHNWEVLAEPIQTVMRRYGIEKPYEKLKELTRGKRVDAEGMKQFIDGLALPEEEKARLKAMTPANYIGRAITMVDELK | soluble
8 | MGSSHHHHHHSSGLVPAGSHMASMTGGQQMGRGSMSLQVNLLNNTFANPFMNAAGVMCTTTEELVAMTESASGSLVSKSCTPALREGNPTPRYQALPLGSINSMGLPNNGFDFYLAYAAEQHDYGKKPLFLSMSGLSMRENVEMCKRLAAVATEKGVILELNLSCPNVPGKPQVAYDFDAMRQCLTAVSEVYPHSFGVKMPPYFDFAHFDAAAEILNEFPKVQFITCINSIGNGLVIDAETESVVIKPKQGFGGLGGRYVLPTALANINAFYRRCPGKLIFGCGGVYTGEDAFLHVLAGASMVQVGTALQEEGPSIFERLTSELLGVMAKKRYQTLDEFRGKVRTLDGTAESTR | soluble
9 | MGSSHHHHHHSSGLVPRGSHMAASTVAGELGLSITGLGVQYPPYSLGPDAIDILSKRYHPESPAMKKVLAINRYTGIDQRSSIGNPDHPLVNKPNPPTVKELHEVFMSDGVPLAVEASRKAMAEARLVPAQITHMVSTTCTDSANPGYDHYVAKELGLSDRLEKVLLHGIGCSGGLAALRTAANLCLGHTARGKPARILVLALEVSTTMVRSELESIDALQETRIGIALFSDCASAVILSNGIGEAPGKPAIYDLLGWENRVIPDSEHDLGFDVDPMGWKVVLSPRVPVLAKASLQPTYADLLSSLQDQLPSSYQKPADFDWAMHPGGATILSGAESAMGLTPEHMRASYDRYINHGNSSSATIFSVLNRLREKDMDALAPGGKVKEYVVGCAFGPGINVEMCMLKRRMNAPARTTTGLDTPPETDDSEGPGPGSSAGSDDGESIEGGEKEEKFINEALDNVELD | soluble
10 | MGSSHHHHHHSSGLVPRGSHMAPSRRERERERRREQIIRAAEKAFFARGYDRVTMDEIAEEAEVNKALLYYYFKNKESLFFAVNLYGVRILHSMYRRCLELDTDGYGKVRAMVEALYSFSKEHPDYFRIYCYSGTERFELSESEDAREIVDLRTGMWRLMVEAIMEGMNDGSIRSDLDPVELSIYIHTLAINALNLDFTSRMVLEARNISRDRFWEDLEVFLESALRP | soluble
11 | MGSSHHHHHHSSGLVPRGSHMDAETVGRVKRFIQENVFVAANHNGSPLSIKEAPKELSFGARAELPRIHPVASKLLRLMQKKETNLCLSADVSLARELLQLADALGPSICMLKTHVDILNDFTLDVMKELITLAKCHEFLIFEDRKFADIGNTVKKQYEGGIFKIASWADLVNAHVVPGSGVVKGLQEVGLPLHRGCLLIAEMSSTGSLATGDYTRAAVRMAEEHSEFVVGFISGSRVSMKPEFLHLTPGVQLEAGGDNLGQQYNSPQEVIGKRGSDIIIVGRGIISAADRLEAAEMYRKAAWEAYLSRLGV | soluble
12 | MGSSHHHHHHSSGLVPRGSHMEHAFTPLEPLLPTGNLKYCLVVLNQPLDARFRHLWKKALLRACADGGANHLYDLTEGERESFLPEFVSGDFDSIRPEVKEYYTKKGCDLISTPDQDHTDFTKCLQVLQRKIEEKELQVDVIVTLGGLGGRFDQIMASVNTLFQATHITPVPIIIIQKDSLIYLLQPGKHRLHVDTGMEGSWCGLIPVGQPCNQVTTTGLKWNLTNDVLGFGTLVSTSNTYDGSGLVTVETDHPLLWTMAIKS | soluble
13 | MGSSHHHHHHSSGLVPRGSHMETADLKSLAKRIYEAYLKNFNMNKVKARVILSGKASNNPPFVIHDMETLCMAEKTLVAKLVANGIQNKEAEVRIFHCCQCTSVETVTELTEFAKAIPGFANLDLNDQVTLLKYGVYEAIFAMLSSVMNKDGMLVAYGNGFITREFLKSLRKPFCDIMEPKFDFAMKFNALELDDSDISLFVAAIICCGDRPGLLNVGHIEKMQEGIVHVLRLHLQSNHPDDIFLFPKLLQKMADLRQLVTEHAQLVQIIKKTESDAALHPLLQEIYRDMY | soluble
14 | MGSSHHHHHHSSGLVPRGSHMFKPKKKLGQCFLIDKNFVNKAVESANLTKDDVVLEIGLGKGILTEELAKNAKKVYVIEIDKSLEPYANKLKELYNNIEIIWGDALKVDLNKLDFNKVVANLPYQISSPITFKLIKRGFDLAVLMYQYEFAKRMVAAAGTKDYGRLSVAVQSRADVEIVAKVPPSAFYPKPKVYSAIVKIKPNKGKYHIENENFFDDFLRAIFQHRNKSVRKALIDSSKELNYNKDEMKKILEDFLNTNSEIKNLINEKVFKLSVKDIVNLSNEFYRFLQNRGRL | soluble
15 | MGSSHHHHHHSSGLVPRGSHMISNKLANIPDSYFGKTMGRKIEHGPLPLINMAVGIPDGPTPQGIIDHFQKALTIPENQKYGAFHGKEAFKQAIVDFYQRQYNVTLDKEDEVCILYGTKNGLVAVPTCVINPGDYVLLPDPGYTDYLAGVLLADGKPVPLNLEPPHYLPDWSKVDSQIIDKTKLIYLTYPNNPTGSTATKEVFDEAIAKFKGTDTKIVHDFAYGAFGFDAKNPSILASENGKDVAIEIYSLSKGYNMSGFRVGFAVGNKDMIQALKKYQTHTNAGMFGALQDAAIYALNHYDDFLEEQSNVFKTRRDRFEAMLAKADLPFVHAKGGIYVWLETPPGYDSEQFEQFLVQEKSILVAPGKPFGENGNRYVRISLALDDQKLDEAAIRLTELAYLYE | soluble
16 | MGSSHHHHHHSSGLVPRGSHMLEDPMEQPINVLNDFHPLNEAGKILIKHPSLAERKDEDGIHWIKSQWDGKWYPEKFSDYLRLHKIVKIPNNSDKPELFQTYKDKNNKRSRYMGLPNLKRANIKTQWTREMVEEWKKCRDDIVYFAETYCAITHIDYGVIKVQLRDYQRDMLKIMSSKRMTVCNLSRQLGKTTVVAIFLAHFVCFNKDKAVGILAHKGSMSAEVLDRTKQAIELLPDFLQPGIVEWNKGSIELDNGSSIGAYASSPDAVRGNSFAMIYIEDCAFIPNFHDSWLAIQPVISSGRRSKIIITTTPNGLNHFYDIWTAAVEGKSGFEPYTAIWNSVKERLYNDEDIFDDGWQWSIQTINGSSLAQFRQEHTAAFEGTSGTLISGMKLAVMDFIEVTPDDHGFHQFKKPEPDRKYIATLDCSEGRGQDYHALHIIDVTDDVWEQVGVLHSNTISHLILPDIVMRYLVEYNECPVYIELNSTGVSVAKSLYMDLEYEGVICDSYTDLGMKQTKRTKAVGCSTLKDLIEKDKLIIHHRATIQEFRTFSEKGVSWAAEEGYHDDLVMSLVIFGWLSTQSKFIDYADKDD | soluble
17 | MGSSHHHHHHSSGLVPRGSHMVNKRMSMVVSGLTPEEFMLVYKFARKHHITLTNLITEETTHVVMKTDAEFVCERTLKYFLGIAGGKWVVSYFWVTQSIKERKMLNEHDFEVRGDVVNGRNHQGPKRARESQDRKIFRGLEICCYGPFTNMPTDQLEWMVQLCGASVVKELSSFTLGTGVHPIVVVQPDAWTEDNGFHAIGQMCEAPVVTREWVLDSVALYQCQELDTYLIPQIP | soluble
18 | MGSSHHHHHHSSGLVPRGSHQPALAAEPAQLRIGYQKAVSSLVLAKQHRLLEQRFPRTKITWVEFPAGPQLLEALNVGSIDLGGAGDIPPLFAQAAGADLLYVGWVPPTPKAETILVPSKSALRTVADLKGKRIAFQKGSSAHNLLLRVLAKSGLSMRDITPLYLSPANARAAFAAGQVDAWAIWDPWYSALTLDGSARLLANGEGLGLTGGFFLSSRRYATAWGPFVQQVMGTLNQADGLLERDRAGSIKTLAQVSGLPPAVVERTLAHRPPASVQPLSAQVIKAQQATADLFYAQRLLPKRVLVAPAVWRAPDAGTAQAVSK | soluble
